Here are results for one molecule from paper PMC5993198.

The data set concerns the target rBac-RelA (human? (hRelA; expressed in Sf9), UniProt Q04206 1-551). Put plainly: fluorescence anisotropy.

Chain of rBac-RelA (Q04206 whole entry): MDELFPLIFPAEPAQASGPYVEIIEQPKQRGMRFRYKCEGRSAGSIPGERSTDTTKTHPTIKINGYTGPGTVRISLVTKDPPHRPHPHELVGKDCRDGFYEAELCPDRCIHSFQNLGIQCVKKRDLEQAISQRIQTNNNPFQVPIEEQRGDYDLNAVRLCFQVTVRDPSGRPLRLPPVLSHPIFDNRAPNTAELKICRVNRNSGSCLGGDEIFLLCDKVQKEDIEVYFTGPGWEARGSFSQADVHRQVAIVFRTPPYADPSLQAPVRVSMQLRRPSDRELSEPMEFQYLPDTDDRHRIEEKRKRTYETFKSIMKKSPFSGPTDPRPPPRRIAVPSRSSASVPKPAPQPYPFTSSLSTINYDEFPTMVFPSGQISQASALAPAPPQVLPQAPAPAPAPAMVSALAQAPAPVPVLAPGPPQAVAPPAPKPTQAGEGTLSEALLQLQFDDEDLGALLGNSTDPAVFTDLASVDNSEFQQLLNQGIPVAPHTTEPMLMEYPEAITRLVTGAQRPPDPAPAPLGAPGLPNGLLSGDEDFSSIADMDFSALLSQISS

As to ATCGTGGGAAAGTTTCTGGATATTCCCTTGGA (ssDNA) [fluorescein ssDNA negative control containing κB site], the binding result was “no binding”.
